Publication doi:10.1101/2025.05.27.656304, “Structure of the conjugation surface exclusion protein TraT” (bioRxiv, 2025)

Target: the molecule itself
Experiment: cryo-EM structure; purified TraT (12 mg/ml) in 100 mM Tris, 150 mM NaCl, 0.02% DDM, pH 8; global resolution 2.01 Å

B1: F plasmid TraT complex (Twin-Strep tagged recombinant TraT) (complex, Escherichia coli (F plasmid), UniProt P13979 22-244, looked up)
chain: CGAMSTAIKKRNLEVKTQMSETIWLEPASERTVFLQIKNTSDKDMSGLQGKIADAVKAKGYQVVTSPDKAYYWIQANVLKADKMDLRESQGWLNRGYEGAAVGAALGAGITGYNSNSAGATLGVGLAAGLVGMAADAMVEDVNYTMITDVQIAERTKATVTTDNVAALRQGTSGAKIQTSTETGNQHKYQTRVVSNANKVNLKFEEAKPVLEDQLAKSIANIL
modifications: lipid anchor on the N-terminal cysteine (density not resolved)
notes: TraT surface exclusion outer membrane lipoprotein of the E. coli F plasmid; the traT gene was cloned into a pET22b-derived vector; the protein in the structure begins at the lipidated N-terminal cysteine; Homodecamer by cryo-EM; also called TraTF; TraT-TS; copies: 10
stoichiometry N: 10
